# Laboratory results from the DeepSol protein solubility set.
# Assay: soluble on expression in E. coli; label from the status in PepcDB or PDB records
row,Sequence,soluble on expression in E. coli
1,TLWPREVEGGQGKPSHGCRAASKARLEAKPANSPFPSHPSLAHITQFRMMVSLGHLAKGASLDDLIDSCIQSFDADGNLCRSNQLLQVMLTMHRIVISSAELLQKVITLYKDALAKNSPGLCLKICYFVRYWITEFWVMFKMDASLTDTMEEFQELVKAKGEELHCRLIDTTQINARDWSRKLTQRIKSNTSKKRKVSLLFDHLEPEELSEHLTYLEFKSFRRISFSDYQNYLVNSCVKENPTMERSIALCNGISQWVQLMVLSRPTPQLRAEVFIKFIQVAQKLHQLQNFNTLMAVIGGLCHSSISRLKETSSHVPHEINKVLGEMTELLSSSRNYDNYRRAYGECTDFKIPILGVHLKDLISLYEAMPDYLEDGKVNVHKLLALYNHISELVQLQEVAPPLEANKDLVHLLTLSLDLYYTEDEIYELSYAREPRNHRAPPLTPSKPPVVVDWASGVSPKPDPKTISKHVQRMVDSVFKNYDHDQDGYISQEEFEKIAASFPFSFCVMDKDREGLISRDEITAYFMRASSIYSKLGLGFPHNFQETTYLKPTFCDNCAGFLWGVIKQGYRCKDCGMNCHKQCKDLVVFECKKRAKNPVAPTENNTSVGPVSNLCSLGAKDLLHAPEEGPFTFPNGEAVEHGEESKDRTIMLMGVSSQKISLRLKRAVAHKATQTESQPWIGSEGPSGPFVLSSPRKTAQDTLYVLPSPTSPCPSPVLVRKRAFVKWENKDSLIKSKEELRHLRLPTYQELEQEINTLKADNDALKIQLKYAQKKIESLQLEKSNHVLAQMEQGDCS,soluble
2,MKQKKAWAIVKEVIEEADIVVEVVDARDPIGTRNKKLERMVLESGKKLLLVMNKADLVPKEWAEEYKRKSEIPVVFISARERKGTGILRRELKKIAKMINKERVKVALIGYPNVGKSTIINVLKGKHSVGTAPIPGYTKGKQMIRLTKKIWLLDTPGVVPIDDFDELVIKGGFPADKIREPVKPALKLIRRILETRKEALTEKFNITEFEDEEDILRKIGERRGIIREGGVVDIEETARWFLREWQTGRFTLFSTEEKREEEYIESFDEILEIIKEQNLTDPRMIIWKFGNILEDYLGAERRFGAIKVGEFMIAIATGFKKCPNAIKFVERITRKNAVAAECFGKKWKGIVAILE,soluble
3,MSLGDPGLKFQEYILQHIEPSKSYEIAICQSIGRRGKMEDTVVVDCSSIEGTDIIGVFDGHNGKDAAYLCTEQYIKTFKENEGTFEAKLIKTHKQLHDKSCETSKSGTTSTVAFIDKDTIRIAYCGDSPAYIYKNNKIKKITKEHKATNSAEVERIEMNGGVVFGMFGVKRVNGQIMVTRSIGDPSLHPPLTTEPDFIKLEKKGIELLFLMSDGITDGVTEKELEDIISKSGGMFNIAFDTLKLAYVNESSDNLTFIVIKINEGHHHHHH,soluble
4,MGSDKIHHHHHHMIIDTHIHAYPTSDDSKMTLEEIVAQARIIGLDGICITDHDSNEIMARAHEYRKQMGYPIFVGAEVFTWEGDVIVFGLERLPEERVSARYLLDLVNKANGVAISAHPFRQNNRGMGNSIREHKDLHGVEAFNGSTDHANNMKACDLAMELGIPVFGASDAHNTEALGKFATVFPNGLKDEKDLIEAIKMGKVYPVAYNHSADAKWTVIPPIG,not soluble
5,MKFLLAVFLLAVCSLGESKKPKAQKVIYVQKVVPPQKQLSEYDLCKEQCRIESETQSNKERVELLKQEIDRAEQLLAEHNKHVDAPEIAPETYMEAGQVPPMRKASRYDHLKMAANKIVESTSELKNAVTGGGDN,not soluble
6,MMIKVGAAINGTDSPKAMKREHDNDDGDRTGRHKRPKTDGFTEAIQQGKFEVRLLVSSKSAGAIIGKGGENIKRLRAEFNAHVQVPDSNTPERVCTVTADEKTVLNILKDVLPRLEDNFSERDPCEVRMLVHQSHAGALIGRNGSKIKELREKCSARLKIFTGCAPGSTDRVLITSGEQKNVLGIIEEVMKELKEIPIKGSATPYLPAFNYDPSNISDYGGFPGNMPAGGPPNNRGPAPQRGGQGPPGGPRSYGGAITQGGGQRSFEAGDFQQFRGGPGPVPGYAMSAPGYPPQQGQFGAPNNAGYGYGPGGGGPVTTAQVTIPSDLGGTIIGRGGERIARIRQESGAQITLEQSNGQPERIITIKGTEQQIHSAQYLLQQCVRNSTQGRERFGGSV,not soluble
7,MGSDKIHHHHHHMGLLAGVEISDVPLKKIVTVCLAVLVAGCAGPQTQELLGSAIVAAPVTEIAGNHSIFIATTRKKSDDPNKVFDGERSATLNYARVNVTVPGLHQTGQIERRSRGKSDDPAKYFMASEVVGYDTQPKFSSALNADIAARGGRVMVFVHGYNTGFDDAVYRLTQIVHDSGYPGTPVLFSWASGAKTTDYVYDKESASAARDQLEVTLRMLQQSGARRIDIVAHSMGTWVTMETLRQMAISGDRDLGGKLGDVVLASPDIDVDVFKSQMRRYGKPDKPFILLLSDDDRALRLSGLIAGSRPRVGDYKDAADLASYGVTVVDLSEVKGSDSFNHTKFADNPVLVKMIGQRLREDDGFASDRDVTDRISLLGQ,not soluble
8,MSLEQPGQPPAHSLVSLRGSGHHVAIVDRSDGRLLGTIDSARAASQVHPGAVYLHQGETFVIEELDDQVALAVPDQPDYQTFARSTTDIRIVGEVDKVCNPAPGLWVSNLVVEVTDRVVGYTMKASDGSVLAMVPLQMPPQTLVTRAVAYTVDPLVLDSLGITDVPGALHAAEHAAIGLLPLIATCDRWDIGGVSTAEHPDTGLPTVFVYDGHPGGAGFADCGYERFPEWVATTFEAIRSCQCESGCPSCVQSPKCGNGNDPLSKEGAIALLGAMCTMLGVTEGHHHHHH,not soluble
9,MVSQVRQNYHSDCEAAVNRMLNLELYASYTYSSMYAFFDRDDVALHNVAEFFKEHSHEEREHAEKFMKYQNKRGGRVVLQDIKKPERDEWGNTLEAMQAALQLEKTVNQALLDLHKLATDKVDPHLCDFLESEYLEEQVKDIKRIGDFITNLKRLGLPENGMGEYLFDKHSVKESS,soluble
10,MVCQHNDELEALVKKAKKVTDKGEVASYIPALAKADKHDLSVAIYYSNNVCLSAGDVEKTFTLQSISKVLSLALVLMEYGKDKVFSYVGQEPTGDPFNSIIKLETVNPSKPLNPMINAGALVVTSLIRGRTVKERLDYLLSFIRRLTNNQEITYCREVAESEYSTSMINRAMCYYMKQYGIFEDDVEAVMDLYTKQCAIEMNSLDLAKIGSVFALNGRHPETGEQVISKDVARICKTFMVTCGMYNASGEFAIKVGIPAKSGVSGGIMGISPYDFGIGIFGPALDEKGNSIAGVKLLEIMSEMYRLSIFLEHHHHHH,soluble
11,PFLELDTNLPANRVPAGLEKRLCAAAASILGKPADRVNVTVRPGLAMALSGSTEPCAQLSISSIGVVGTAEDNRSHSAHFFEFLTKELALGQDRILIRFFPLESWQIGKIGTVMTFL,soluble
12,MKPKEDREWEKFKTKHITSQSVADFNCNRTMNDPAYTPDGQCKPINTFIHSTTGPVKEICRRATGRVNKSSTQQFTLTTCKNPIRCKYSQSNTTNFICITCRDNYPVHFVKTGKC,soluble
13,MGQWANLKAKVIQLWENTHESISQVGLLGDETGIIKFTIWKNAELPLLEQGESYLLRSVVVGEYNDRFQVQVNKNSSIEKLSEPIEVGLEHHHHHH,not soluble
14,GMAGAAHRLMEARMRRYDNKFARISDIDINQPESWRGRIFLTFDIDWAADFVLQDTIDLIEGAGVCATWFATHSTPLLENIRRNPLFELGVHPNFNPLLAGAHAEGVQEILDRTLELAPGCVSVRSHSLVQATSILNMFGERRLRYDCNILVPWDAGIVLQPWRHWTGDMVRVPYLWEDDVACLYDWEFDSTFDYWYQPDGINVLDFHPIHVYMNTESLRRYEDSREVHRNPVDLIRWRNTSAGSRTFLQSLLARNI,soluble
15,PKAPVTGYVRFLNERREQIRTRHPDLPFPEITKMLGAEWSKLQPAEKQRYLDEAEKEKQQYLKELWAYQQSEAYKVCTE,soluble
16,MGEAAYVTVSALTKYIKRKFDVDPHLENIWIKGELSNVKIHTRGHIYFTLKERKGRMQSVMFARQSERLPFKPENGMKVLVRGGISVYEPSGNYQLYAKEMQPDGVGALYLAYEELKKKLAGEGLFDDRYKKQIPAFPATIGVVTSPTGAAVRDVITTLKRRYPLVKVIVLPALVQGENASRSIVTRIEEANEKEICDVLIVGRGGGSIEELWAFNEEIVARAIFASNIPIISAVGHETDFTISDFVADIRAATPTGAAEIAVPHTTDLIERTKTAEVRMTRAMQQHLGQEKGRIQTLQSSYAFRFPKRLYAQKEQQFDLAYQQFQAQLTALLDRKSRQLERETYRLEALHPHEQLKQARTRYQEQTNQLRKNMNIQMKQLHSQFQTVLGKLNALSPLQVMERGYSLAYKEDKLIKSVSQIEEQDRLEIKLKDGVLTCEVLEKRGEEK,not soluble
